Test results published in the RNAGym collection of RNA variant scans (doi:10.1093/molbev/msab373).

B1: Azoarcus group I ribozyme (parent)
chain: GUGCCUUGCGCCGGGAAACCACGCAAGGGAUGGUGUCAAAUUCGGCGAAACCUAAGCGCCCGCCCGGGCGUAUGGCAACGCCGAGCCAAGCUUCGGCGCCUGCGCCGAUGAAGGUGUAGAGACUAGACGGCACCCACCUAAGGCAAACGCUAUGGUGAAGGCAUAGUCCAGGGAGUGGCGAAAGUCACACAAACCGG

Variants of: B1
Assay: reverse-splicing fitness (ratio to wild type); higher = more active; in vitro selection; Mg2+ level not given
How it was run: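 An in vitro group I ribozyme library with randomized positions was T7-transcribed and gel-purified. In triplicate, 10 pmol RNA in EPPS pH 7.5 was reacted with 50 pmoles of a 30-nt RNA substrate for 1 h at 37 °C across several added MgCl2 levels (1–48 mM), then stopped with EDTA. Products were reverse transcribed from a substrate-complementary primer, PCR-amplified and sequenced (HiSeq 4000). Fitness is a variant's read proportion after selection over that before, normalised to wild type.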

Variant | reverse-splicing fitness
C82U A111G A145G C150G C169U U176G | 0.00654
C82U A111G A145G C150G C169U U176A | 0.0101
C82U A111G A120U A145G C150U C169G U176G | 0.00189
C82U A111G A120U A145G C150U C169G U176C | 0.00432
C82U A111G A120U A145G C150U C169G U176A | 0.00913
C82U A111G A145C C150G | 0.0393
C82U A111G A145C C150U | 0.091
C82U A111G A145C C150A | 0.019
C82U A111G A145C C150U C169A U176A | 0.00923
C82U A111G A145C C150U C169A U176C | 0.00548
C82U A111G A145C C150U C169A U176G | 0.00526
C82U A111G A120U A145U C150G U176C | 0.00492
C82U A111G A120U A145U C150G U176A | 0.00344
C82U A111G A120U A145U C150G U176G | 0.00254
C82U A111G A145C C169G U176C | 0.0119
C82U A111G A145C C169G U176G | 0.00461
C82U A111G A145C C169G U176A | 0.0196
C82U A111G A120U C150U C169U | 0.00388
C82U A111G A120U C150U C169A | 0.00334
C82U A111G A120U C150U C169G | 0.00459
C82U A111G A120U A145G C150U | 0.0339

Variant | reverse-splicing fitness
C82U A111G A145G U176G | 0.048
C82U A111G A145G U176A | 0.201
C82U A111G A145G U176C | 0.265
C82U A111G A145G C150U | 0.334
C82U A111G A145G C150A | 0.0568
C82U A111G A145G C150G | 0.0407
C82U A111G A145C C150A C169A U176A | 0.0104
C82U A111G A145C C150A C169A U176C | 0.00627
C82U A111G A145C C150A C169A U176G | 0.00539
C82U A111G A145U C150A C169A U176G | 0.00532
C82U A111G A145U C150A C169A U176C | 0.00854
C82U A111G A145U C150A C169A U176A | 0.0129
C82U A111G A120U C150U U176A | 0.00678
C82U A111G A120U C150U U176C | 0.0105
C82U A111G A120U C150U U176G | 0.00374
C82U A111G A120U C150U C169A U176A | 0.00365
C82U A111G A120U C150U C169A U176G | 0.00203
C82U A111G A120U C150U C169A U176C | 0.00318
C82U A111G A120U C150G | 0.00763
C82U A111G A120U C150A | 0.00814
C82U A111G A120U C150U | 0.0236

Variant | reverse-splicing fitness
C82U A111G A120U A145U C169U U176A | 0.00252
C82U A111G A120U A145U C169U U176G | 0.0016
C82U A111G A120U A145U C169U U176C | 0.00254
C82U A111G A120U C169A U176G | 0.00189
C82U A111G A120U C169A U176C | 0.00211
C82U A111G A120U C169A U176A | 0.0024
C82U A111G A120U A145U C150U C169A | 0.00252
C82U A111G A120U A145U C150U C169U | 0.00372
C82U A111G A120U A145U C150U C169G | 0.00305
C82U A111G A145G C150U U176C | 0.193
C82U A111G A145G C150U U176A | 0.135
C82U A111G A145G C150U U176G | 0.0312
C82U A111G A145C C150U C169G U176A | 0.0186
C82U A111G A145C C150U C169G U176C | 0.00977
C82U A111G A145C C150U C169G U176G | 0.00565
C82U A111G A145C C169G | 0.0078
C82U A111G A145C C169U | 0.00982
C82U A111G A145C C169A | 0.00618
C82U A111G A145U C150G U176C | 0.0255
C82U A111G A145U C150G U176A | 0.0137
C82U A111G A145U C150G U176G | 0.00442

Variant | reverse-splicing fitness
C82U A111G A120U A145G C169U | 0.00406
C82U A111G A120U A145G C169G | 0.00348
C82U A111G A120U A145G C169A | 0.00248
C82U A111G A145G C169A U176C | 0.022
C82U A111G A145G C169A U176G | 0.00491
C82U A111G A145G C169A U176A | 0.0185
C82U A111G A145U C150A C169G U176G | 0.00518
C82U A111G A145U C150A C169G U176A | 0.0131
C82U A111G A145U C150A C169G U176C | 0.0113
C82U A111G A145G C150G C169A U176C | 0.0111
C82U A111G A145G C150G C169A U176A | 0.012
C82U A111G A145G C150G C169A U176G | 0.00737
C82U A111G A145U C150U C169U | 0.0088
C82U A111G A145U C150U C169G | 0.00858
C82U A111G A145U C150U C169A | 0.00819
C82U A111G A120U A145U U176A | 0.00945
C82U A111G A120U A145U U176C | 0.0196
C82U A111G A120U A145U U176G | 0.004
C82U A111G A145U C150A C169U U176G | 0.00567
C82U A111G A145U C150A C169U U176C | 0.012
C82U A111G A145U C150A C169U U176A | 0.013
